Results on 1 molecule are retold here after patent CN114044821A (INST MILITARY MEDICINE ACADEMY MILITARY SCIENCES PLA, dated 2022).

In the test the target is 新冠病毒野生型刺突蛋白(S蛋白)，在假病毒/真病毒表面 (SARS-CoV-2, UniProt P0DTC2 14-1273). Put plainly: cell-based or functional assay.

B1: 抗SARS-CoV-2全人源单克隆抗体ZWC12 (antibody, V domains shown)
VH: EVQLVESGGALVQPGGSLRLSCAASGFTFANYAMSWVRQAPGKGLEWVSSMTGSSIDSYYADSVKGRFTISRDNSRNTLYLQMNSLRAEDTAVYYCAKGELLWFGDLLHNWFDPWGRGTLVTVSS
VL: DIVMTQSPATLSVSPGERATLSCRASQSVSTNLAWYQQKPGQAPRLLIHGASTRATGLPARFSGSGSGTEFTLTISSLQSEDFAVYFCQQYDSWPGTFGPGTKVDIKR
Consider B1, for which the “假病毒中和 EC50 (luciferase, HEK293T)” value was determined as 1.04 µg/mL and the “真病毒中和 EC50 (Vero E6, crystal violet)” value was 25 µg/mL.
